Target: human SIRPα V1 expressed on cells (NOR mouse macrophages or CHO cells) (human) (UniProt P78324)
Assay: cell-based binding assay (NOR mouse macrophages)
Design: unit not given beside the values
Conditions: Fc fusion

Chain of human CD47-Fc fusion protein (Q08722 19-141): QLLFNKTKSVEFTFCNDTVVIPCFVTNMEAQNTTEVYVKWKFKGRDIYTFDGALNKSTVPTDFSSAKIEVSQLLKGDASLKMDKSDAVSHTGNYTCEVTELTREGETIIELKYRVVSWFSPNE
Chain of human SIRPα V1 expressed on cells (NOR mouse macrophages or CHO cells) (human) (P78324 31-504): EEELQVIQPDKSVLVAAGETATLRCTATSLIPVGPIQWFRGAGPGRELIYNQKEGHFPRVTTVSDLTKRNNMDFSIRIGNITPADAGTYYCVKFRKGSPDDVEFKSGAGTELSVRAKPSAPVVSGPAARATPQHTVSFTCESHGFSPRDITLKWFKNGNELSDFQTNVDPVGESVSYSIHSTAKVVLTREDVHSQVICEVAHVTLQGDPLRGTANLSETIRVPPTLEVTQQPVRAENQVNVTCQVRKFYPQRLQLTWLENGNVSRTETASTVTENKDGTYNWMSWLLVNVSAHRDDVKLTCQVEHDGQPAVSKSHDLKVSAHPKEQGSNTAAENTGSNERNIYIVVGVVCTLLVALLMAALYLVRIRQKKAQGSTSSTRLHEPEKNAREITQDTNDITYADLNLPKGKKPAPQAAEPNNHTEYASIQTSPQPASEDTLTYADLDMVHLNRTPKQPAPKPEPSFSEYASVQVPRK

- Kd: 8.7 ?
Substance: human CD47-Fc fusion protein (from UniProt Q08722 19-141)

From US20140242095A1
